Results from patent US20180135019A1.
Each block holds one substance with its values, some of them ahead of it.

Columns and labels:
[1] = target: STRO-1 monoclonal antibody; experiment: competition: STRO-1 pre-incubated with GST-L393, flow cytometry on UE7T-13 cells, relative to pre-incubation with GST alone
[2] = target: heat shock cognate 70 (HSC70; HSPA8) on the surface of UE7T-13 cells (human) (UniProt P11142); experiment: flow cytometry on UE7T-13 cells, hybridoma supernatant, fluorescein anti-mouse IgM
Sequence of UniProt P11142 (P11142 2-646 limits assumed): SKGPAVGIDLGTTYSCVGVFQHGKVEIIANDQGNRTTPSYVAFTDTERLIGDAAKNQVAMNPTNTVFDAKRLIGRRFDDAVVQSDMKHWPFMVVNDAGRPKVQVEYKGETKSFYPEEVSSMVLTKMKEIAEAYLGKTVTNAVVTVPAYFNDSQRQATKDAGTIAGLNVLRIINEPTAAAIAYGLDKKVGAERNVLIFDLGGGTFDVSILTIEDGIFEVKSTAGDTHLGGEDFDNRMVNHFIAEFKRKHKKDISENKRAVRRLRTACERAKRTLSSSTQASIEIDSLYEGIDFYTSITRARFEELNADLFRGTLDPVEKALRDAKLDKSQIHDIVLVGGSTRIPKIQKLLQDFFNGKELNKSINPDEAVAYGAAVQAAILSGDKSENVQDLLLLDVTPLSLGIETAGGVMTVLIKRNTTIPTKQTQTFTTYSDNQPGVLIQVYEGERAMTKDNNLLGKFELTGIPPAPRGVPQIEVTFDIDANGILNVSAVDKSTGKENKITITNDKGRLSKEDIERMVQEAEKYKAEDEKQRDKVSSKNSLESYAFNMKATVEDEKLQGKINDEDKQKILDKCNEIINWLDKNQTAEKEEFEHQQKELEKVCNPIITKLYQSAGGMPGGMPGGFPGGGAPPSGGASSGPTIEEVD

[3] = target: STRO-1 monoclonal antibody; experiment: competition: STRO-1 pre-incubated with rh-HSC70 overnight at 4 C, flow cytometry of STRO-1 on UE7T-13 cells

reduction in antibody binding [1]: 60%
Substance: GST-L393 (N-terminal Glutathione S-transferase fusion of the first 393 amino acids of human HSC70) (from UniProt A2Q0Z1 1-393)

MFI [2]: 17200
Substance: STRO-1 monoclonal antibody

reduction in MFI [3]: 30%
Substance: recombinant human HSC70 (Enzo) (from UniProt A2Q0Z1 1-646)
